Numbering of substitutions follows the chain as printed. Names may count otherwise. Each block holds one binder with its values, some of them ahead of it.
Target: Arf6 (co-precipitated with FLAG–AMPKα2 from cells), P62330
Experiment: co-immunoprecipitation (IP anti-FLAG, immunoblot for Arf6), band quantification
Conditions: chain shown with the change; HEK 293T cells transfected with FLAG-AMPKα2 and Arf6-myc; n=4; empty (no FLAG-AMPKα2) control = 1; parent: est. 6.0; read off a plot

Chain of Arf6 (co-precipitated with FLAG–AMPKα2 from cells), P62330 (P62330 whole entry): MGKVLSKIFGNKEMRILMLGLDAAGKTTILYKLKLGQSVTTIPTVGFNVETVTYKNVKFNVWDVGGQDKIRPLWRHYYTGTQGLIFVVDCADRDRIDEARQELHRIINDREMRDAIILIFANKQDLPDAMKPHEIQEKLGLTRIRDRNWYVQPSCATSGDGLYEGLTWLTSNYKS

response: 1.4
B1: FLAG–AMPKα2-WT, P54646 W402A; H403A; L404A; G405A; I406A (protein)
chain: MAEKQKHDGRVKIGHYVLGDTLGVGTFGKVKIGEHQLTGHKVAVKILNRQKIRSLDVVGKIKREIQNLKLFRHPHIIKLYQVISTPTDFFMVMEYVSGGELFDYICKHGRVEEMEARRLFQQILSAVDYCHRHMVVHRDLKPENVLLDAHMNAKIADFGLSNMMSDGEFLRTSCGSPNYAAPEVISGRLYAGPEVDIWSCGVILYALLCGTLPFDDEHVPTLFKKIRGGVFYIPEYLNRSVATLLMHMLQVDPLKRATIKDIREHEWFKQDLPSYLFPEDPSYDANVIDDEAVKEVCEKFECTESEVMNSLYSGDPQDQLAVAYHLIIDNRRIMNQASEFYLASSPPSGSFMDDSAMHIPPGLKPHPERMPPLIADSPKARCPLDALNTTKPKSLAVKKAKAAAAARSQSKPYDIMAEVYRAMKQLDFEWKVVNAYHLRVRRKNPVTGNYVKMSLQLYLVDNRSYLLDFKSIDDEVVEQRSGSSTPQRSCSAAGLHRPRSSFDSTTAESHSLSGSLTGSLTGSTLSSVSPRLGSHTMDFFEMCASLITTLAR

response: 1.3
B2: FLAG–AMPKα2-WT, P54646 E418A; V419A; Y420A; R421A (protein)
chain: B1 chain with A402W, A403H, A404L, A405G, A406I, E418A, V419A, Y420A, R421A
